Values quoted from earlier work in PMC3432176.

Biological target: preMADH (Paracoccus denitrificans) (UniProt P22619)
Test: kinetics

Sequence of UniProt P22619 (P22619 58-188, chain 1 of 2): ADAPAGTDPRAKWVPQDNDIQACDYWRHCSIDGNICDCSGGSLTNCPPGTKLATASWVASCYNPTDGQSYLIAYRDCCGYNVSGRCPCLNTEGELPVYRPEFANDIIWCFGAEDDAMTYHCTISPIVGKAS
Sequence of UniProt P22619 (P29894 29-417, chain 2 of 2, further chain): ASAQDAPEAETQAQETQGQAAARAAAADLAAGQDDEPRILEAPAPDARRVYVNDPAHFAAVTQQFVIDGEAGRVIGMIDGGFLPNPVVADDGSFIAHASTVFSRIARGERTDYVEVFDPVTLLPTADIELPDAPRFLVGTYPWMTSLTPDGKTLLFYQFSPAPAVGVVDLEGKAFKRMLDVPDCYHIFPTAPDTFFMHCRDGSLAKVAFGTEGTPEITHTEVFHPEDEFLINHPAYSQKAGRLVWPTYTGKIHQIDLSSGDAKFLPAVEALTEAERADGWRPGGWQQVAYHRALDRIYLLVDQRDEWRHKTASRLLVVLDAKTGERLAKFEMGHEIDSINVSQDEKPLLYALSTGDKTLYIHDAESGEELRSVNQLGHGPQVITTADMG

MauG (from UniProt Q51658)
Kd: < 1500 nM
